Patent publication US20110118131A1 (published 2011)
Numbering of substitutions follows the chain as printed. In names and notes the source's numbering stands.

T1: Ep-CAM (UniProt P16422 24-265, limits assumed)
T1 construct: Amine coupled to a CM5 chip in the Biacore assays
T1 sequence (looked up): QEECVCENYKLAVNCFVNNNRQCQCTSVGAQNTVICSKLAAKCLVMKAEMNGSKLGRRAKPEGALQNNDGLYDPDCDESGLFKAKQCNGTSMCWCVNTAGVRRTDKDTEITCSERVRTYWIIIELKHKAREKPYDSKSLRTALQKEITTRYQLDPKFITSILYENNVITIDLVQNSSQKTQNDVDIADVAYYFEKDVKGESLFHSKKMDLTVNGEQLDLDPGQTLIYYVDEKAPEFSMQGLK

B1: ING-1 light chain R101F (Fab, V domains shown)
VH: QIQLVQSGPELKKPGETVKISCKASGYTFTKYGMNWVKQAPGKGLKWMGWINTYTEEPTYGDDFKGRFAFSLETSASTANLQINNLKSEDTATYFCARFGSAVDYWGQGTSVTVSS
VL: DIVMTQAAFSNPVTLGTSGSISCRSSKSLLHSNGITYLYWYLQKPGQSPQLLIYQMSNLASGVPDRFSSSGSGTDFTLRISRVEAEDVGVYYCAQNLELPFTFGGGTKLEMKR
notes: Fab, periplasmic extract
B2: ING-1 light chain R101W (Fab, V domains shown)
VH: B1 VH
VL: B1 VL with F101W
notes: Fab, periplasmic extract
B3: ING-1 light chain Y54E (Fab, V domains shown)
VH: B1 VH
VL: B1 VL with Y54E, F101R
notes: Fab, periplasmic extract
B4: ING-1 light chain Y54S (Fab, V domains shown)
VH: B1 VH
VL: B1 VL with Y54S, F101R
notes: Fab, periplasmic extract
B5: ING-1 light chain Y37E (Fab, V domains shown)
VH: B1 VH
VL: B1 VL with Y37E, F101R
notes: Fab, periplasmic extract
B6: ING-1 light chain Y54H (Fab, V domains shown)
VH: B1 VH
VL: B1 VL with Y54H, F101R
notes: Fab, periplasmic extract
B7: ING-1 light chain T36R (Fab, V domains shown)
VH: B1 VH
VL: B1 VL with T36R, F101R
notes: Fab, periplasmic extract
B8: ING-1 light chain Y54D (Fab, V domains shown)
VH: B1 VH
VL: B1 VL with Y54D, F101R
notes: Fab, periplasmic extract
B9: ING-1 light chain R101S (Fab, V domains shown)
VH: B1 VH
VL: B1 VL with F101S
notes: Fab, periplasmic extract
B10: ING-1 light chain S57Q (Fab, V domains shown)
VH: B1 VH
VL: B1 VL with S57Q, F101R
notes: Fab, periplasmic extract
B11: ING-1 light chain Y37Q (Fab, V domains shown)
VH: B1 VH
VL: B1 VL with Y37Q, F101R
notes: Fab, periplasmic extract
B12: ING-1 light chain S32N (Fab, V domains shown)
VH: B1 VH
VL: B1 VL with S32N, F101R
notes: Fab, periplasmic extract
B13: ING-1 light chain S57Y (Fab, V domains shown)
VH: B1 VH
VL: B1 VL with S57Y, F101R
notes: Fab, periplasmic extract
B14: ING-1 light chain R101Q (Fab, V domains shown)
VH: B1 VH
VL: B1 VL with F101Q
notes: Fab, periplasmic extract
B15: ING-1 light chain S28N (Fab, V domains shown)
VH: B1 VH
VL: B1 VL with S28N, F101R
notes: Fab, periplasmic extract
B16: ING-1 light chain R101Y (Fab, V domains shown)
VH: B1 VH
VL: B1 VL with F101Y
notes: Fab, periplasmic extract
B17: ING-1 light chain Y37K (Fab, V domains shown)
VH: B1 VH
VL: B1 VL with Y37K, F101R
notes: Fab, periplasmic extract
B18: ING-1 light chain R101H (Fab, V domains shown)
VH: B1 VH
VL: B1 VL with F101H
notes: Fab, periplasmic extract
B19: ING-1 light chain R101N (Fab, V domains shown)
VH: B1 VH
VL: B1 VL with F101N
notes: Fab, periplasmic extract
B20: ING-1 light chain R101K (Fab, V domains shown)
VH: B1 VH
VL: B1 VL with F101K
notes: Fab, periplasmic extract
B21: ING-1 light chain Y54R (Fab, V domains shown)
VH: B1 VH
VL: B1 VL with Y54R, F101R
notes: Fab, periplasmic extract
B22: ING-1 light chain T36D (Fab, V domains shown)
VH: B1 VH
VL: B1 VL with T36D, F101R
notes: Fab, periplasmic extract
B23: ING-1 light chain Y37S (Fab, V domains shown)
VH: B1 VH
VL: B1 VL with Y37S, F101R
notes: Fab, periplasmic extract
B24: ING-1 light chain Y54N (Fab, V domains shown)
VH: B1 VH
VL: B1 VL with Y54N, F101R
notes: Fab, periplasmic extract
B25: ING-1 light chain Y37N (Fab, V domains shown)
VH: B1 VH
VL: B1 VL with Y37N, F101R
notes: Fab, periplasmic extract
B26: XPA23 light chain S53T (Fab, V domains shown)
VH: EVQLLESGGGLVQPGGSLRLSCAASGFTFSKYFMFWVRQAPGKGLEWVSVISPSGGMTRYADSVKGRFTISRDNSKNTLYLQMNSLRAEDTAVYYCARVGYGGNSDYWGQGTLVTVSS
VL: DIQMTQSPSSVSASVGDRLTIICRASQDINRWLAWYQQTPGNAPKLLIHSATTLQSGVPSRFSGSGSGTDFTLTINSLQPEDFATYYCQQADSFPLTFGGGTKVEIK
notes: Single light chain substitution; Fab in periplasmic extract; also called C5A (XPA23) S53T
B27: XPA23 light chain A91L (Fab, V domains shown)
VH: B26 VH
VL: B26 VL with T53S, A91L
notes: Single light chain substitution; Fab in periplasmic extract; also called C5A (XPA23) A91L
B28: XPA23 light chain A91G (Fab, V domains shown)
VH: B26 VH
VL: B26 VL with T53S, A91G
notes: Single light chain substitution; Fab in periplasmic extract; also called C5A (XPA23) A91G
B29: XPA23 light chain A91T (Fab, V domains shown)
VH: B26 VH
VL: B26 VL with T53S, A91T
notes: Single light chain substitution; Fab in periplasmic extract; also called C5A (XPA23) A91T
B30: XPA23 light chain A91I (Fab, V domains shown)
VH: B26 VH
VL: B26 VL with T53S, A91I
notes: Single light chain substitution; Fab in periplasmic extract; also called C5A (XPA23) A91I
B31: XPA23 light chain A91P (Fab, V domains shown)
VH: B26 VH
VL: B26 VL with T53S, A91P
notes: Single light chain substitution; Fab in periplasmic extract; also called C5A (XPA23) A91P

Target: T1, Ep-CAM
Assay: Biacore, Fab periplasmic extract

binding result	fold difference in affinity vs parental ING-1	Binder
no binding		B1
no binding		B2
	0.05 fold	B3
	0.9 fold	B4
	0.01 fold	B5
no binding		B6
no binding		B7
	0.03 fold	B8
no binding		B9
no binding		B10
	0.02 fold	B11
no binding		B12
no binding		B13
no binding		B14
no binding		B15
no binding		B16
	0.02 fold	B17
no binding		B18
no binding		B19
	0.04 fold	B20
no binding		B21
	0.05 fold	B22
	0.09 fold	B23
no binding		B24
	0.06 fold	B25

Target: IL-1β (UniProt P01584 117-269)
Assay: Biacore, Fab periplasmic extract on IL-1β

fold difference in affinity vs original	binding result	Binder
0.95 fold		B26
0.39 fold		B27
	no binding	B28
0.67 fold		B29
	no binding	B30
	no binding	B31
